For experiment [1], the target named is T1, human Glypican-1 (UniProt P35052 24-530).
T1 chain: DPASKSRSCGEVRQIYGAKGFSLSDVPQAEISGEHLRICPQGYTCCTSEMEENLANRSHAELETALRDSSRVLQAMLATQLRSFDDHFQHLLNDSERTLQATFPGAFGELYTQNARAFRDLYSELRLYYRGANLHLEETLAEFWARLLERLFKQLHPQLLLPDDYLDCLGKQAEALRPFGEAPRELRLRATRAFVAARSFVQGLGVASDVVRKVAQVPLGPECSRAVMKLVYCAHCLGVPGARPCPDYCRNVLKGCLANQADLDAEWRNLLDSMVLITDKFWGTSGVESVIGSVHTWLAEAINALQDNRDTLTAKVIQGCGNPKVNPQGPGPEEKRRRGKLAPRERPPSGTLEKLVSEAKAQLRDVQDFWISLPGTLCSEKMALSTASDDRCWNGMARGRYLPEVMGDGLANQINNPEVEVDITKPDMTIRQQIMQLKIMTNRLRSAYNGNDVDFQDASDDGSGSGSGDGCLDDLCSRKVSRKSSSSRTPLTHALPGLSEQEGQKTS
The experiment is described as follows: FACS. (Flow cytometry measures light scatter and fluorescence of single cells or particles in a stream.)

The target of experiment [2] is T1, human Glypican-1. As to the kind of experiment: Biacore.
Experiment [3] addresses clone18. The experiment is described as follows: FACS.
The target of experiment [4] is clone4. The experiment is described as follows: FACS.
In experiment [5] the target is clone18. The experiment is described as follows: Biacore. In general terms: Surface plasmon resonance follows binding to a sensor surface in real time, without labels.
In experiment [6] the target is clone4. As to the kind of experiment: Biacore.

B1: anti-Glypican-1 antibody clone K090-02b006 (antibody, V domains shown)
VH: EVQLVESGGGLVKPGGSRKLSCAASGFTFSDYGMHWVRQAPEKGLEWVAYISSGSSTIYYADTVKGRFTISRDNAKNTLFLQMTSLRSEDTAIYYCVRHSYYNYDIGGYYAMDYWGQGTSVTVSS
VL: DIVLTQSPSSLSASLGERVSLTCRASQEISGYLSWLQQKPDGTIKRLIYAASTLDSGVPKRFSGSRSGSDYSLTISSLESEDFADYYCLQYASYPLTFGAGTKLEIKR
Regarding B1, the dissociation constant Kd with human Glypican-1 [1] stood at 3.2 nM; in the experiment with human Glypican-1 [2], 16.3 nM.

B2: anti-Glypican-1 antibody clone K090-02a002 (antibody, V domains shown)
VH: EVKLVESGGGLVKPGGSRKLSCAASGFTFSDYGMHWVRQAPEKGLEWVAYISSGSSTIYYADTVKGRFTISRDNAKNTLFLQMTSLRSEDTAMYYCARHSYYSYDVGGDYVMDYWGQGTSVTVSS
VL: DIVMSQSPKFMSTSVGDRVSITCKASQDVGTAVAWYQQKPGQSPKLLIYWASTRHTGVPDRFTGSGSGTDFTLTISNVQSEDLADYFCQQYSSYPLTFGAGTKLEIKR
In the case of B2, the values for the Kd in the experiment with human Glypican-1 [1] and in the experiment with human Glypican-1 [2] were 2.25 nM and 1.12 nM, respectively.

B3: anti-Glypican-1 antibody clone K090-02a010 (antibody, V domains shown)
VH: EVKLVESGGGLVKPGGSRKLSCAASGFTFSDYGMHWVRQAPEKGLEWVAYINSGSSTIYYADTVKGRFTISRDNAKNTLFLQMTSLRSGDTAMYYCARHSYYSYDVGGDYVMDYWGQGTSVTVSS
VL: DIVLTQSPKFMSTSVGDRVSITCKASQDVGTAVAWYQQKPGQSPKLLIYWASTRHTGVPDRFTGSGSGTDFTLTISNVQSEDLADYFCQQYSSYPLTFGAGTKLEIKR
With B3, the Kd with human Glypican-1 [1] worked out at 2.25 nM; with human Glypican-1 [2] it was 1.28 nM.

B4: anti-Glypican-1 antibody clone K090-01a042 (antibody, V domains shown)
VH: QVQLQQPGAELAKPGASVKMSCKASGYTFTRYWMHWVKQRPGQGLEWIGYINPSSGYTEYNQKFKDKATLTADKSSSTAYMQLSSLTSEDSAVYYCVRLGDYSYYFDYWGQGTTLTVSS
VL: DVVMTQTPLSLPVSLGDQASISCRSSQSIVHSNGNTYLEWYLQKPGQSPKLLIYKVSNRFSGVPDRFSGSGSGTDFTLKISRVEAEDLGVYYCFQGSHVPWTFGGGTKLELKR
On to B4, for which the values for the Kd with human Glypican-1 [1] and with human Glypican-1 [2] were 6.36 nM and 16.2 nM, respectively.

B5: GPC1 (other)
chain: DPASKSRSCGEVRQIYGAKGFSLSDVPQAEISGEHLRICPQGYTCCTSEMEENLANRSHAELETALRDSSRVLQAMLATQLRSFDDHFQHLLNDSERTLQATFPGAFGELYTQNARAFRDLYSELRLYYRGANLHLEETLAEFWARLLERLFKQLHPQLLLPDDYLDCLGKQAEALRPFGEAPRELRLRATRAFVAARSFVQGLGVASDVVRKVAQVPLGPECSRAVMKLVYCAHCLGVPGARPCPDYCRNVLKGCLANQADLDAEWRNLLDSMVLITDKFWGTSGVESVIGSVHTWLAEAINALQDNRDTLTAKVIQGCGNPKVNPQGPGPEEKRRRGKLAPRERPPSGTLEKLVSEAKAQLRDVQDFWISLPGTLCSEKMALSTASDDRCWNGMARGRYLPEVMGDGLANQINNPEVEVDITKPDMTIRQQIMQLKIMTNRLRSAYNGNDVDFQDASDDGSGSGSGDGCLDDLCSRKVSRKSSSSRTPLTHALPGLSEQEGQKTS
Turning to B5, the Kd in the experiment with clone18 [3] turned out to be 1.52 nM; with clone4 [4], 0.804 nM; with clone18 [5], 3.21 nM; in the experiment with clone4 [6] it was 3.21 nM.

B6: anti-Glypican-1 antibody clone K090-02a014 (antibody, V domains shown)
VH: EVQLQQSGPELVKPGASVKISCKASGYSFTGYYIHWVKQSPEKSLEWIGEINPSTGDITYNQKFKAKATLTVDKSSSTAYMQLKSLTSDDSAVYYCARERNYDRFAYWGQGTLVTVSS
VL: SIVMTQTPALMAASPGEKVTITCSVSSSISSSNLHWYQQKSETSPKPWIYGTSNLASGVPVRFSGSGSGTSYSLTISSMEAEDAATYYCQQWSSYPLTFGAGTKLEIKR
For the molecule B6, the results for the Kd in the experiment with human Glypican-1 [1] and with human Glypican-1 [2] were 1.72 nM and 2.52 nM, respectively.

B7: anti-Glypican-1 antibody clone K090-01a009 (antibody, V domains shown)
VH: EVQLQQSGPELVKPGASVEISCKASGYSFTGYFMNWVKQSQGKSLEWIGRINPDNGDIFYNQKFKGKATLTVDKSSSTAHMELRSLTSEDSAVYYCARSWNWYFDVWGAGTTVTVSS
VL: DIQMTQSPASLSASVGETVTITCRASENIYSYLAWYQQKQGKSPQLLVYNAKTLAEGVPSRFSGSGSGTQFSLKINSLQPEDFGSYYCQHHYGTPYTFGSGTKLEIKR
Consider B7, for which the results for the Kd with human Glypican-1 [1] and with human Glypican-1 [2] were 4.47 nM and 26.9 nM, respectively.

B8: anti-Glypican-1 antibody clone K090-01a030 (antibody, V domains shown)
VH: QVQLQQSGAELVRPGTSVKMSCKAAGYTFTNYWIGWVKQRPGHGLEWIGDIYPGGGYTHYNEKFKGKATLTADTSSSTAYMQLSSLTSEDSAIYYCARERVYYDGSRYFDVWGAGTTVTVSS
VL: DIKMTQSPKFLPVSAGDRVTMTCKASQSVGNNVAWYQQKPGQSPKLLIYYASNRYTGVPDRFTGSGSGTDFTFTISSVQVEDLAVYFCQQHYSSPWTFGGGTKLEIKR
With B8, the Kd with human Glypican-1 [1] came to 5.24 nM; in the experiment with human Glypican-1 [2], 42.8 nM.

B9: anti-Glypican-1 antibody clone K090-01a026 (antibody, V domains shown)
VH: QVHLQQSGAELVRPGTSVKMSCKAAGYTFTNYWIGWVKQRPGHGLEWIGDIYPGGGYTHYNEKFKGKATLTADTSSSTAYMQLSSLTSEDSAIYYCARERVYYDGSRFFDVWGAGTTVTVSS
VL: DIVMSQSPKFLPVSAGDRVTMTCKASQSVGNNVAWYQQKPGQSPKLLIYYASNRYTGVPDRFTGSGSGTDFTFTISSVQVEDLAVYFCQQHYSSPWTFGGGTKLEIKR
Regarding B9, the Kd was 11.2 nM with human Glypican-1 [1] and 12400 nM in the experiment with human Glypican-1 [2].

B10: anti-Glypican-1 antibody clone K090-01a002 (antibody, V domains shown)
VH: EVQLQQSGPELVKPGASVKISCKSSGYSFTRYYMHWVKHSPEKSLEWIGEINPSTGDTTYNQKFKAKATLTVDKSSSTAYMQLKSLTSEDSAVYYCAREKRDDGVLAYWGQGTLVTVSS
VL: DIQMTQSPKFLPVSAGDRVTMTCKASQSVGNNVAWYQQKPGQSPKLLIYYASNRYTGVPDRFTGSGSGTDFTFTISSVQVEDLAVYFCQQHYSSPLTFGAGTKLELKR
In the case of B10, the Kd came to 0.638 nM with human Glypican-1 [1] and 4.99 nM with human Glypican-1 [2].

B11: anti-Glypican-1 antibody clone K090-01a017 (antibody, V domains shown)
VH: EVQLQQSGGELVRPGTSVKMSCKAAGYTFTNYWIGWVKQRPGHGLEWIGDLYPGGGYTHYNEKFKGKATLTADTSSSTAYMQLSSLTSEDSAIYYCARERVYFDGSRYFDVWGAGTTVTVSS
VL: SIVMTQTPKFLPVSAGDRVTMTCKASQSVGNNVAWYQQKPGQSPKLLIYYASNRYTGVPDRFTGSGSGTDFTFTISSVQVEDLAVYFCQQHYSSPWTFGGGTKLEIKR
Regarding B11, the Kd with human Glypican-1 [1] was determined as 5.92 nM; with human Glypican-1 [2], 24.9 nM.

B12: anti-Glypican-1 antibody clone K090-01a033 (antibody, V domains shown)
VH: QVQLKQSGPELVKPGASVKISCKASGYSFTGYYMHWVKQSPEKSLEWIGEINPSTGDTTYNQKFKAKATLTVDKSSSTAYMQLKSLTSEDSAVYYCAREKRDDGVFAYWGQGTLVTVSS
VL: DIVMSQSPKSMSMSVGERVALSCKASENVGTYVSWYQQKPEQSPKLLIYGASNRYTGVPDRFTGSGSATDFTLTISSVQAEDLADYYCGQSYSYPLTFGAGTKLELKR
Regarding B12, the figures for the Kd with human Glypican-1 [1] and in the experiment with human Glypican-1 [2] were 0.583 nM and 8.9 nM, respectively.

A word on the Kd: it is the concentration at which binding is half-saturated. The low end stands for higher affinity, the high end for lower affinity.

Source of the values: US20200308299A1 (published 2020).
